Ends that are not written are not given here. PEG = not defined here

A short description of this series: Dynamic light scattering (DLS) particle size in aqueous environment. In kind it is physicochemical. The source says:
In this example, it was hypothesized that binding affinity between β-CD and Ad-RGD would induce the well-controlled guest molecule amount through the Ad-RGDs inserted at different amounts with one another. First of all, β-CD PPZ and β-CD PPZ+Ad-RGD gave different results from measurement of dynamic light scattering (DLS). […] As Ad-RGDs were included in β-CD PPZ, the practical size of aqueous particles of β-CD PPZ+Ad-RGD was increased.
Further, to identify whether Ad-peptides were stoichiometrically and accurately inserted into the host molecules, dynamic light scattering (DLS) measurement was performed by mixing host molecules and guest molecules such that the ratio of host molecule: guest molecule was 1:1, 1:1.2, and 0:1. […] In this DLS result of the conjugate in which the ratio of host molecule:guest molecule was 1:1, any peaks involved in guest molecules alone were not shown (C of FIG. 17). It means that there were no guest molecules separated from β-CD PPZ. […] This means that all of the Ad-peptides were incorporated into the conjugates of β-CD PPZ and Ad-peptide (host molecule:guest molecule=1:1) in the aqueous environment. On the other hand, it was confirmed that when Ad-peptides was excessively mixed with β-CD PPZ (host molecule: guest molecule=1:1.2), the surplus Ad-peptides formed their own other peaks analogous to those of Ad-TGF and Ad-HAV alone (FIG. 18). […]

In turn, “adamantane-PEG-CESPLKRQ ({adamantane-PEG}-CESPLKRQ; reading uncertain) [Ad-TGF, TGF-β1 mimic peptide linked to adamantane via PEG]” gave an average particle size of 353.63±31.71 nm. To “adamantane-PEG-CLRAHAVDIN ({adamantane-PEG}-CLRAHAVDIN; not fully specified; reading uncertain) [Ad-HAV, N-cadherin mimic peptide linked to adamantane via PEG]” belongs 460.78±49.53 nm.

The values above are taken from US20250163223A1, “HYDROGEL INCLUSION COMPLEX INCLUDING PHYSIOLOGICALLY ACTIVE MATERIAL BOUND TO THERMOSENSITIVE POLY(PHOSPHAZENE) BY HOST-GUEST INTERACTION USING BETA-CYCLODEXTRIN AND USE THEREOF” (KOREA INSTITUTE OF SCIENCE AND TECHNOLOGY, priority 2019, published 2025).
